According to paper PMC7679444 (2020):

B1: GST-HA-ATG16L1(231–607) [human] / TMEM59 peptide (residues 268–280), wild type [modified: long spacer (Tds) at the N-terminal end, used for immobilisation; long spacer (Tds) at the N-terminal end, used for immobilisation] [not stated] (parent complex)
chain 1: PLPVEQDDDIEVIVDETSDHTEETSPVRAISRAATKRLSQPAGGLLDSITNIFGRRSVSSFPVPQDNVDTHPGSGKEVRVPATALCVFDAHDGEVNAVQFSPGSRLLATGGMDRRVKLWEVFGEKCEFKGSLSGSNAGITSIEFDSAGSYLLAASNDFASRIWTVDDYRLRHTLTGHSGKVLSAKFLLDNARIVSGSHDRTLKLWDLRSKVCIKTVFAGSSCNDIVCTEQCVMSGHFDKKIRFWDIRSESIVREMELLGKITALDLNPERTELLSCSRDDLLKVIDLRTNAIKQTFSAPGFKCGSDWTRVVFSPDGSYVAAGSAEGSLYIWSVLTGKVEKVLSKQHSSSINAVAWSPSGSHVVSVDKGCKAVLWAQY
chain 2: YVPSEKLSIYGDL

Variants of: B1
Assay: peptide microarray; 800, 400 nM (n = 6); parent: 100; read off a plot

percent of parent [% WT] | Variant
~1 | chain 2 Y1A, chain 2 E5A, chain 2 Y10A, chain 2 L13A
